Patent publication US20230060040A1, “USE OF TRANSFERRIN, TRANSFERRIN RECEPTOR AND ANTIBODY THEREOF IN PREPARATION OF ANTI-SARS-CoV-2 DRUG” (KUNMING INSTITUTE OF ZOOLOGY, CHINESE ACADEMY OF SCIENCES, priority 2020, published 2023)

Target: transferrin receptor on the membrane surface of Vero E6 cells (African green monkey)
Assay: cell-based or functional assay

transferrin (Sigma, catalog number T4382) (from UniProt P02787 20-698) (ligand)
EC50 of inhibition of SARS-CoV-2 infection of Vero E6 cells, calculated by CPE: 125 nM
